Data on three molecules can be found in PMC6293271, “Bactericidal/Permeability-Increasing Protein Is an Enhancer of Bacterial Lipoprotein Recognition” (Frontiers in Immunology, 2018).

Ends that are not written are not given here.

Holding throughout (details): both partners purified
Experiment [1] concerns the target T1, recombinant bactericidal/permeability-increasing protein (rBPI) (human, UniProt P17213 32-487, labelled with NT647 (NHS labelling kit) in the MST experiments only).
T1 construct: also called rBPI NT647
T1 sequence (looked up): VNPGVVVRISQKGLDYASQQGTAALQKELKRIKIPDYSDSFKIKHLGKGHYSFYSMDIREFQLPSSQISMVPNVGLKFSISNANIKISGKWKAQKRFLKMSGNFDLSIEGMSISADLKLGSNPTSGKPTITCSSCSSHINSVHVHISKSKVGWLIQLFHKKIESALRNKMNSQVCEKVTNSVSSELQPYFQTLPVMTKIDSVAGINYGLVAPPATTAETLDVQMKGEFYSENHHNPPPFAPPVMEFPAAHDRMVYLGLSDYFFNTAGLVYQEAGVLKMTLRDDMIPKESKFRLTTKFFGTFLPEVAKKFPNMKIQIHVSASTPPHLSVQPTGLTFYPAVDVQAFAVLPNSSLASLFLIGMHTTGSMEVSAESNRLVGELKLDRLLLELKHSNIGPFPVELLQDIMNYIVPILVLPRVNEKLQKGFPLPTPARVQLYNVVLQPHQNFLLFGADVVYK
The experiment in a line: NanoDSF (thermal shift).

The target of experiment [2] is T1, recombinant …. Description: MST.
In experiment [3] the target is T1, recombinant …. Description: ELISA; BPI microtiter binding assay, competition: 20 nM BPI pre-incubated 30 min with increasing lipopeptide, loaded on LPS biotin (2 μg/ml) on streptavidin plates, 1 h 37°C; 150 mM NaCl, 50 mM HEPES, 1 g/l BSA; bound BPI detected with anti-human BPI antibody.

B1: (R)-Pam2CSK4 (peptide)
peptide: CSKKKK
modifications: not fully specified (residue 1); printed as (R)-Pam2CSK4
notes: also called di-acylated lipopeptide; source: synthetic peptide; bought: EMC Microcollections
Turning to B1, the binding result in experiment [1] is “binds”.

B2: (R)-Pam3CSK4 (peptide)
peptide: CSKKKK
notes: also called tri-acylated bLP; source: synthetic peptide; bought: EMC Microcollections
B2: the Kd in experiment [2] came to 162 ± 23.5 nM.

B3: PamCSK4 (peptide)
peptide: CSKKKK
modifications: not fully specified
notes: also called mono-acylated lipopeptide; source: synthetic peptide; bought: EMC Microcollections
Consider B3, for which, in experiment [3], the binding result was “binds”.
